Assay [1] addresses human IGF1R extracellular domain, recombinant, His tag at C-terminus (human) (UniProt P08069). Nature of the assay: ELISA on ECD of IGF1R, bispecific form. For orientation: An ELISA detects its analyte on a solid surface through an enzyme-linked reagent.
In assay [2] the target is human IGF1R, endogenous, on the surface of breast cancer cell lines (MCF-7, JIMT-1, BT474) (human) (UniProt P08069). As to the kind of experiment: FACS on MCF-7 cells, antibody 10 ug/mL (2nd Ab only 2.86, not treated 1.88).
Assay [3] has the same target. As to the kind of experiment: FACS on MCF-7 cells (2nd Ab only 2.92).
For assay [4], the target named is human IGF1R extracellular domain, recombinant, His tag at C-terminus (human) (UniProt P08069). Nature of the assay: SPR (Biacore T200), His-tagged human IGF1R ECD captured by anti-his antibody on CM4 chip, bivalent model. For orientation: In SPR one partner is held on a chip, and binding of the other changes the refractive index at the surface.

B1: Hu3A9-C04 (bispecific antibody form of 1564 affinity variant C04) (bispecific antibody, part only; not given: humanized 3A9 IgG carrier, linker, not shown: another chain or arm of the molecule; a dimerising Fc or GST; large carriers; small tags and cut ends)
scFv: QSVLTQPPSASGTPGQRVTISCTGSSSNIGSNDVSWYQQLPGTAPKLLIYANSNRPSGVSDRFSGSKSGTSASLAISGLRSEDEADYYCGAWEQWLNGYVFGCGTKLTVLGGGGSGGGGSGGGGSGGGGSEVQLLESGGGLVQPGGSLRLSCAASGFTFSSYDMSWVRQAPGKCLEWVSAISYDNGNTYYADSVKGRFTISRDNSKNTLYLQMNSLRAEDTAVYYCAKGVLTTLMNWFDYWGQGTLVTVSS
The term EC50 denotes the concentration giving half of the maximal effect. B1: the EC50 in assay [1] was 0.000107 µM. The GeoMean, Internalization at 37° C. in assay [2] came out at 7.23.

B2: hu3A9x1564_F06 (bispecific antibody: humanized 3A9 IgG with F06 scFv) (bispecific antibody, part only; not given: humanized 3A9 IgG carrier, linker, not shown: another chain or arm of the molecule; a dimerising Fc or GST; large carriers; small tags and cut ends)
scFv: QSVLTQPPSASGTPGQRVTISCTGSSSNIGSNDVSWYQQLPGTAPKLLIYANSNRPSGVSDRFSGSKSGTSASLAISGLRSEDEADYYCGTWAGSLNGYVFGCGTKLTVLGGGGSGGGGSGGGGSGGGGSEVQLLESGGGLVQPGGSLRLSCAASGFTFSSYDMSWVRQAPGKCLEWVSAISYDNGNTYYADSVKGRFTISRDNSKNTLYLQMNSLRAEDTAVYYCAKGVLTTLMNWFDYWGQGTLVTVSS
Regarding B2, the GeoMean, Internalization at 37° C. in assay [2] came out at 19.8.

B3: C04 (1564 affinity variant) in bispecific antibody form, backbone not stated (bispecific antibody, not shown: small tags and cut ends)
scFv: QSVLTQPPSASGTPGQRVTISCTGSSSNIGSNDVSWYQQLPGTAPKLLIYANSNRPSGVSDRFSGSKSGTSASLAISGLRSEDEADYYCGAWEQWLNGYVFGCGTKLTVLGGGGSGGGGSGGGGSGGGGSEVQLLESGGGLVQPGGSLRLSCAASGFTFSSYDMSWVRQAPGKCLEWVSAISYDNGNTYYADSVKGRFTISRDNSKNTLYLQMNSLRAEDTAVYYCAKGVLTTLMNWFDYWGQGTLVTVSS
B3: the GEOmean in assay [3] is 3.88.

B4: F06 IgG (anti-IGF1R clone F06, full IgG1 form) (antibody, from a related filing, V domains shown)
VH: EVQLLESGGGLVQPGGSLRLSCAASGFTFSSYDMSWVRQAPGKGLEWVSAISYDNGNTYYADSVKGRFTISRDNSKNTLYLQMNSLRAEDTAVYYCAKGVLTTLMNWFDYWGQGTLVTVSS
VL: QSVLTQPPSASGTPGQRVTISCTGSSSNIGSNDVSWYQQLPGTAPKLLIYANSNRPSGVPDRFSGSKSGTSASLAISGLRSEDEADYYCGTWAGSLNGYVFGGGTKLTVL
Turning to B4, the Kd in assay [4] was determined as 0.478 µM.

(Values after patent US20220348665A1.)
